In the DeepSol protein solubility set:

Assay: soluble on expression in E. coli; label from the status in PepcDB or PDB records
With “MNENGATPVAAARRHRPLPAERATSNSNETGLLINVIRSLTSSVSEDQREVEKSRLEKGYKESGALIDRLVKNHQQDVEKCLVSFRDVSSKISNCRERIHNVRNALHTVKSLLELRRDDLKKLWHENAQQKSVCEIMAKLEELREAPSKIENLISKEQYQQAADTVTESRELINGRLSRVEGLSHLSAEIERFTKILIDKINDTLVNMLVVEPFEKHLLHIVRTIPEHRINQNAYCHSLSTKSRSGSGSVSSFSDVSAKSRIVSSVEALSTLFRTVEERHWDVDRLMMLGKNMIDKMIVNTVQVMKIGANIDESNEGDTTHLKQLMQLLSAQFDSASQQHAEFGVLVEKQLGRKDVVTSFWRSAQSAIEVVVSEHLDINPLLEKQNVLGTASRKQLFRFENTACATPNANSSSHRTKAVICKPSAYNIKVIFPILSRLMETTEKNINDSPCELRRFMHSFVMEVFVERVKGELASRIEGALRGGEAVRVSTNKKILPSCEKVLNLCKEVQDLIVSIDLYADRFAALWLLVLTDYFKNMTDVYDRMTPKNPDPSLPNSEALPTRRQKISAAWTADDDISRLLMSLPNWHAASISPMTPAVESELDVGERNKRESEILIGNLGTQAQNSLSESDLITDMNDIKMFASLHESLRWFSDEIRELVHSLPANVKMMLDTCMVQVRLKDGQMIDNNSVPSAIEDCVRRLESIADSCLLLLHIEIRVHCFFHLAPLAKYRNTSSHNEVDPEVVALGKDLHQFHDNLKDVLSPAKLSYVFDGLGHLCASLFIHYSQFMPRLTEAAKKRVCRNVWGVQQRLSRITNRRESDLDRARAFFDLLLDNTPDGILAIVPEKRSQFTATELNYLLALSVRSDKTLASQPGALEKRQMVLNSILNQKK” the “soluble on expression in E. coli” value was “not soluble”.
With “MSLTQIQPGVEKFIKDFNDAKKKGEHAYDMTLSYQNFDKGFFNSRFQMQMTFDNGAPDLNIKPGQKVVFDVDVEHGPLPITMLMHGNVIPALAAAKVNLVNNELTQPLFIAAKNKSPVEATLRFAFGGSFSTTLDVAPAEYGKFSFGEGQFTFNGDGSSLSNLDIEGKVEDIVLQLSPMNKVTAKSFTIDSLARLEEKKFPVGESESKFNQINIINHGEDVAQIDAFVAKTRLDRVKDKDYINVNLTYELDKLTKGNQQLGSGEWSLIAESIDPSAVRQFIIQYNIAMQKQLAAHPELANDEVALQEVNAALFKEYLPLLQKSEPTIKQPVRWKNALGELNANLDISIADPAKSSSSTNKDIKSLNFDVKLPLNVVTETAKQLNLSEGMDAEKAQKQADKQISGMMTLGQMFQLITIDNNTASLQLRYTPGKVVFNGQEMSEEEFMSRAGRFVHEGHHHHHH” the “soluble on expression in E. coli” value was “not soluble”.
For “MYAAYQTNGPARPIARTAAFTKEDDLLVDMARQNNLRGRILTYCVAGTFGLLSPNYLHASAATANWDINQIEISGLSESSVGAISESARDIAHIRAVTKISVSELSRVFGVSRQAVHEWIKGGTLSQRNAQRLSELARATDVFIEAEIEASPQVFRRKIAGGQSILDAVRENGNAVELAKTLAATLVRESQQRQRLAARLAGRSATPGTSTEFGSPHLDEDA”, the “soluble on expression in E. coli” value was “not soluble”.
For “PATSRFYEQHADCLAEQYTSLKFEDVHASWRAFWPQARDRVLDVGAGSGRDAKWMAEHGCEVIAIEPAQALLRFGKSYCGDSVTWLEDGLPKLEKTINLGFRFDLILVSAVWMHLAPTHRERAFRKLANLLAPNGRLVISLRHGDFSDGRKAYPVSVEELEKFAKNRALMVRNVSLDDDQLQ”, the “soluble on expression in E. coli” value was “not soluble”.
In the case of “LDNEMLTLDIVASDLLTLQALNAARLKEAGAVDATFVTKAINEQPLNLGQGIWLSDSAEGNLRSAIAVSRAANAFDVDGETAAMLVSVAMNDDQPIAVLKRLADLLLDNKADRLLKADAATLLALLTSDDAPTDDV”, the “soluble on expression in E. coli” value is reported as “not soluble”.
In the case of “MSLIPKFREFDRERHRTDYQKGMSYAEQQDFDMGFTIWFDHIEDLDLIEKDGTINRIVMMSTGLKDKNVKEIYESDIVRNLYGELYVVEWLDGSFVLTEFYNGGYDHYIIDSSTEYEVLGNIYENPELLEDDNHASNEGHHHHHH”, the “soluble on expression in E. coli” value is reported as “soluble”.
With “PVGYFTMYRFNFKYPPFDNKKIRQAAMYAIGQEDVMKALVGNPKYWQTCASLWGCGTPFETDIGKDMVVPSNIEKARALLKEAGYDNTPILVMHATDVGTLSAQPVVMAQALRKAGFNVNLAAMDWQSVATRRASKAAPAQGGWNIHNTNWYATDIMDPVRSAPAAANGDNAWFGWPDIPEIEALRTRFALSSDPAEQKKLAEEAQRIGIDEGLYVPLGQMSVPTVYTTKLSGLVHAPVFAFWNVKKAP” the “soluble on expression in E. coli” value was “not soluble”.
With “MEKENTNGGSVYVTVDGHFKPVHVSMKGTGEKGFLEFMLEDVEKALKETEMPVIGMMYYNVPDMGIVPHLWEGNNDDYLQRLEKAMDGHGIKLHRYLRLSEVVYCL” the “soluble on expression in E. coli” value was “not soluble”.
For “MGSDKIHHHHHHMMDWLYRYPPLYPGILLKRYKRFFADVQLTSGEIVTAHCPNTGPMTGVSTPQSAVQLSKSDNLNRKLAYTLELIQVHDNEPTWVGINTFLPNRVVKLALAKYLFPELGEYSQIKGEVVYGLDKKSRVDFFLTGSDEERPIYLEVKNTTLSEGRLALFPDTETTRGQKHLRELMALLPLTRAVMLYFINRGDCTEFSPGDRTDPVYGKLLRDAIALGLEVLPCRFDISPEGIRYLGLAKLKI”, the “soluble on expression in E. coli” value was “not soluble”.
For “MRRELGMGSEWLGEECEIVMGQSPPSETCNTVGIGIPLLNGPTEFGPHHPSPAQFTTDVRKRAIPGDILFCVRGSTTGRMNWADQEYAIGRGIAAIRHKFKPELQPFVRAVIECYLPELLAQATGSTFPNVSAQQLSNLKWPELAADEQRAIAYILGTLDDKIELNRKQNETLEAMARALFKAWFVDFEPVRAKLEGRWQRGQSLPGLPAHLYDLFPDCLVDSELGEIPEGWEIGSFADVVEIIGGSTPKTSVSEYWGGDIPWFSVVDTPASSDVFVVQTEKSITQSGLNESSARLISKGTTIISARGTVGNLAIAGCDMTFNQSCYALRSKNSLGSYFVFLSAQRMVEQLKAMAHGSVFSTITRQTFEAVQTVLPPENVLQQFERSFASLFDEILNNVNESRTLAKLRDTLLPKLISGELRVNDAKRILARIELDTATQRREQ”, the “soluble on expression in E. coli” value was “soluble”.
In the case of “MGSAEQACGCKGARFCALCETTERVKKLRVVEDKHVNYKVFIYDHIRQIAIPTTNLNSQSSLEDIIDESTSCQSVSTDGSIEIDGLTLIHNFLSESEESKILNMIDTVEWAQSQSGRRKQDYGPKVNFKHKKVKTDTFVGMPEYADMLLNKMSEYDVKKLGNYQPFEMCNLEYEEVKKSAIEMHQDDMWIWGNRLIRYEFLFKKVLFN”, the “soluble on expression in E. coli” value is reported as “soluble”.
In the case of “MAHHHHHHMDPNAFLSSFDAIVTLSNTEGPRHNVLEPKFTAREQMQALRESVRNAYKESPSQTAMSQICRCYVFIGFNMLETDEETEGVSEICKAYTLTLFGSKKELLDDVVDIAAHPLEEILRNEVPFVTAEKEYAFVTEFMRVHNALGFYFSNRDVELRINDAKQVLIVAEKAYRAWNDWFHQSFPGHCLMKDIPVLENGTLDRASISPDALPIYIVRFEMDTAFTSTLFFLAQVYTACKMTALASRYCHHTLYHQLLNKMEFSKKDWATNALHLSAFYSSCFDYGKALHCLRAGEYIMPEENANEETLGIVAWAFGKFYLHRLHYYSEVRRNCAPRGHFPDEFEGWWVDFPLDIPPPQPLPAIETFEDARKCFKEANVWFNKALNYYVYDGCCTEHIDIKKDIAQLYAALIPFEENRDRIIAMHQRRIALIELFPSDLNFNAYPTLVRQLLFDLGGMHEEMLEVYIQQKNSPMEGEKPLSDKKINAFADKVQGFYRRFCDTWKEPQTNKIPETIDIDSRLPFFRSLMRLAHLQMKRFFKDPKEEYDNISASIVMFEKAIAFASSNPMNEEADAEVQLAREMATLLPVRQKDLWRVYHNAV”, the “soluble on expression in E. coli” value is reported as “not soluble”.
With “MTVETFHPKQTTTLETPAKTLEAASADSVNTGNVATGNRIGFVSLGCPKNLVDSERILTQLRIDGYEVTNSYDNADLVIVNTCGFIDAAVEESLDAVREALEENGKVIVTGCLGAKENQIREVHPDVLEITGPHSYEAVLKHVHKYVPKPEHNPFTSLIPQTGVKLTPKHYAYLKISEGCDNRCTFCIIPALRGDLDSRGAGSVLDEAKRLVEAGVQEILVVSQDTSAYGKDKGGRTDFWNGMPVKQDITSLARQLGKMGAWVRLHYIYPYPWVDDLIPLMAEGLILPYLDIPMQHASPRILKMMKRPGRVDRQLEAIQRWREICPDLVIRSTFIVGFPGETEEDFEMLLDFLREARLDRVGCFKYSEVEGAVANTIAELISEEVKEDRYHRFMEVQAEISAERLARFVGRTMDILIDDVDEEGAIGRSFADAPEIDGMVFINGETELEPGMLVRAVITHSDEHDLWAELVDADAEDEVEALEHHHHHH” the “soluble on expression in E. coli” value was “soluble”.
For “MNKILLQCDNLCKRYQEGTVQTDVLHDVSFSIGEGEMMAIVGSSGSGKSTLLHLLGGLDTPTSGDVIFSGQPMSKLSSAAKAELRNQKLGFIYQFHHLLPDFTALENVAMPLLIGKKKPAEIDARAREMLHAVGLEHRATHRPSELSGGERQRVAIARALVNNPRLVLADEPTGNLDARNADSIFELLGELNRLQGTAFLVVTHDLQLAKRMSRQLEMRDGRLTAELSLMGAE”, the “soluble on expression in E. coli” value was “not soluble”.
For “MHKNGNNGPVIDTKWHYLGPDSEKYGPYMSKDMLFWLQAGYFNDGLQLKTENEPNYHTLGEWSQLLGTHPFSMPVHSLDATIAQMNSMRPHGAMMMVPPGLQNQFQPPMPMRFPPFLPMPLLHQMNQNGPPMGAQMHSQPPSEPIDAGSLSHTPDSENETRLNEQTLQQPPSWLIALGLAGHGRKPHHHQQILAHQHIPQMQHANVATDQVVMKSVECQTEPVEISKEQASRVLSELLGQMVIIN”, the “soluble on expression in E. coli” value was “not soluble”.
With “MTIAQEPTALNFECETGNYHTFCPISCVAWLYQKIEDSFFLVIGTKTCGYFLQNAMGVMIFAEPRYAMAELEEGDISAQLNDYAELKRLCEQIKRDRNPSVIVWIGTCTTEIIKMDLEGLAPKLEGEIGIPIVVARANGLDYAFTQGEDTVLAAMAHRCPDKAPVAELEHHHHHH” the “soluble on expression in E. coli” value was “not soluble”.
In the case of “MGSDKIHHHHHHMYDVLIIGAGPAGSSLARLIGDKYKVLLIDKRDLANENPHNLAGKCCGGLLAPDAQKMIAKLGLGIPKDILVNPQLFAVRTIDLTNNLERLYQRFYLNMDREKFDRWLVSILPKKVDKKFNAVFKDFVEIPGGYEVKYIHNGQEISAKTRVIIGADGAFSKLRRFLNQDINGPEKYIAIQEWYECPHHVPYFTAIFDEEISDFYSWIIPKENYLLLGSALKPKEKAREKYELLKTKLTQRGFNFDNKIRTEGAYLYRPKKVSQFYAGRDSIALVGEAAGGISPSSAEGISYALKSSAYLAQSLEEGIDGFLDRYKLKVKGIKLNLLLKNLKSPAMYNPLLRQLAMKSGLQSIDRTE”, the “soluble on expression in E. coli” value is reported as “not soluble”.
In the case of “MIGRERMTVASQRLIAERTYELTLSGRLVQEMRQPGQFVHVKVAASADPLLRRPLSLCHIDHKQGQCTIIYRQEGKGTALLAQKQPGDTVDVLGPLGNGFPLEAAPADSRALLVGGGIGVPPLYELAKQLTKRGVKVVSVLGFQTKAAVFYEEEFAAFGETHVATDDGSHGTAGRVTDVIEARSLEFDVLYACGPKPMLRALAERFPNRPVYLSLEERMGCGVGACFACVCHVPGSETAYKKVCSDGPVFRAGEVVL”, the “soluble on expression in E. coli” value is reported as “soluble”.
With “MLNETIQKEFQRKEIKYLIEADTFEQLQKEFKDYLTPDRFTHSSITNIYFDNPDFQLIKDSINHRHASEKIRMRTYDPKPTQKSQAFLEIKKKEYQGEQEIGYKYRLTSTPLSLCNYVQQGIIDNNIKQDDRANHELAILRERYKKLVPKMFIHYERFSLRGIENPKLRVTFDRNVIYRHENVNLTSGFNGYPLLKNNQIVMEIKVKNGLPAWMEKIFHKHQLIPQSFSKYTTAYLKAYGLTPEDIREEPTSIALEHHHHHH” the “soluble on expression in E. coli” value was “soluble”.
With “AIAKILLVFDFDNTIIDDNSDTWIVQCAPNKKLPIELRDSYRKGFWTEFMGRVFKYLGDKGVREHEMKRAVTSLPFTPGMVELFNFIRKNKDKFDCIIISDSNSVFIDWVLEAASFHDIFDKVFTNPAAFNSNGHLTVENYHTHSCNRCPKNLCKKVVLIEFVDKQLQQGVNYTQIVYIGDGGNDVCPVTFLKNDDVAMPRKGYTLQKTLSRMSQNLEPMEYSVVVWSSGVDIISHLQFLIKD” the “soluble on expression in E. coli” value was “soluble”.
